Measurements reported in patent US20100291540A1.

Key:
[1] = biological target: starch binding domain derived from Aspergillus niger glucoamylase (AnSBD) (Aspergillus niger) (UniProt P69328); experiment: competition sandwich ELISA, 250 nM gp140 premixed with panel, AnSBD-coated plate; competes with the panel's HIV antigen
[2] = biological target: starch binding domain derived from Rhizopus oryzae glucoamylase (RoSBD) (Rhizopus oryzae) (UniProt P07683); experiment: competition sandwich ELISA, 250 nM gp140 premixed with panel, RoSBD-coated plate; competes with the panel's HIV antigen

## HIV1 gp140 antigen
[1]
  inhibition rate: 40.1%
[2]
  inhibition rate: 42.9%
